Assay results published in US20250026813A1 (published 2025).

Assays:
[1] = molecular target: SARS-CoV-2 spike receptor binding domain (RBD), antigen of Example 10 (SARS-CoV-2, UniProt P0DTC2 319-541)
[2] = molecular target: SARS-CoV-2 spike protein receptor binding domain (RBD) (SARS-CoV-2, UniProt P0DTC2 319-541)
[3] = molecular target: SARS-CoV-2 spike protein N-terminal domain (NTD) (SARS-CoV-2, UniProt P0DTC2 14-305)
[4] = molecular target: SARS-CoV-2 spike N-terminal domain (NTD), antigen of Example 10 (SARS-CoV-2, UniProt P0DTC2 14-305)

Binder	Kd [1]	Kd [2]	Kd [3]	Kd [4]
IMPI-060 (antibody, V domains shown) VH: EVQLVESGGGLIQPGGSLRLSCAASGVTVSSNYMSWVRQAPGKGLEWVSVIYSGGSTFYADSVKGRFTISRDNSKNTLYLQMNSLRAEDTAVYYCARDLSYYGMDVWGQGTTVTVSS VL: DIQLTQSPSFLSASVGDRVTITCWASQGISSYLAWYQQKPGKAPKLLIYAASTLQSGVPSKFSGSGSGTEFTLTISSLQPEDFATYYCQQLNSYPSSFGQGTKLEIK	141 nM	–	–	–
IMPI-038 (antibody, V domains shown) VH: QVQLVESGGGVVQPGRSLRLSCAASGFTFSSYGMHWVRQAPGKGLEWVAVISYDGSDKYYADSVKGRFTISRDNSKNTLYLQMNSLRAEDTAVYYCAKTVAGYYYYYYGMDVWGQGTTVTVSS VL: DIQMTQSPSSVSASVGDRVTVTCRASQDISSWLAWFQQKPGKAPKFLIYDASNLENGVPSRFSGSGSGTDFTLTISSLQPEDFATYYCQQAKSFPWTFGQGTKVEIN	–	0.826 nM	475 nM	–
IMPI-067 (antibody, V domains shown) VH: QVQLVESGGGVVQPGTSLRLSCAASGFTFNSFGMHWVRQAPGKGLEWVAVISYDGSSKYYADSVKGRFTISRDNSKNTLYLQMNSLRAEDTAVYYCAKDEGDYDDYYYGMDVWGQGTTVTVSS VL: EIVLTQSPGSLSLSPGERATLSCRASQSLSSRYLAWYHQKPGQAPRLLIYGASSRATGIPDRFSGSGSGTDFTLTISGLEPEDFAVYYCQQYGNSITFGGGTKVEIK	–	–	–	84.5 nM
IMPI-042 (antibody, V domains shown) VH: EVQLVESGGGLIQPGGSLRLSCAASGLTVSSNYMSWVRQAPGKGLEWVSIIYSGGSTYYADSVKGRFTISRDNSKNTLYLQMNSLRAEDTAVYYCARLGGYYYYGMDVWGQGTTVTVSS VL: DIQMTQSPSSLSASVGERVTITCQASQDIRNYLNWYQKKPGKAPKLLIYDSSNLETGVPSRFSGGGSGTDFTFTISSLQPEDIATYYCQQYDNLPITFGQGTRLEIK	–	1.87 nM	662 nM	–
IMPI-054 (antibody, V domains shown) VH: EVQLVESGGGLIQPGGSLRLSCAASGLTVSSNYMSWVRQAPGKGLEWVSIIYSGGSTYYADSVKGRFTISRDNSKNTLYLQMNSLRAEDTAVYYCARLGGYYYYGMDVWGQGTTVTVSS VL: DIQMTQSPSSLSASVGERVTITCQASQDIRNYLNWYQKKPGKAPKLLIYDSSNLETGVPSRFSGSGSGTDFTFTISSLQPEDIATYYCQQYDNLPITFGQGTRLEIK	2.06 nM	–	–	602 nM
IMPI-024 (antibody, V domains shown) VH: EVQLVQSGAEVKKPGESLKISCKGSGYSFTSYWIGWVRQMPGKGLEWMGIIYPGDSDTRYSPSFQGQVTISADKSISTAYLQWSSLKASDTAMYYCVRSYNWNYFDYWGQGTLVTVSS VL: AIQLTQSPSSLSASVGDRVTITCRASQGISSGLAWYQQKAGKAPKLLIYDVSSLESGVPSRFSGSGSGTDFTLTISSLQPEDFATYYCQQFLSYPWTFGQGTKVEIK	–	1.16 nM	660 nM	–
IMPI-027 (antibody, V domains shown) VH: QVQLQESGPGLVKPSQTLSLTCTVSGGSISSYGYYWNWIRQHPGKGLEWIGYIYYSGSTYYNPSLKSRVTISVDTSKNQLSLRLNSVSAADTAVYYCARDFGGNSNYFDYWGQGTLVTVSS VL: AIQLTQSPSSLSASVGDRVTITCRTSQGISSALAWYQQKPGKAPKLLIYDASSLESGVPSRFSGSGSGTDFTLTISSLQPEDFATYYCQQFNSYPLTFGGGTKVEIK	–	6.31 nM	2910 nM	–
IMPI-033 (antibody, V domains shown) VH: QVQLQESGPGLVKPSQTLSLTCTVSGGSISSYGYYWSWIRQHPGKGLEWIGYIYYSGSTYYNPSLKSRVTMSVDTSKNQLSLRLNSVSAADTAVYYCARDFGGNSNYFDYWGQGTLVTVSS VL: AIQLTQSPSSLSASVGDRVTITCRASQGISSALAWYQQKPGKAPNLLIYDASSLESGVPSRFSGSGSGTDFTLTISSLQPEDFATYYCQQFNSSPLTFGGGTKVEIK	–	3.02 nM	1820 nM	–
